Usually EC50 stands for the concentration that produces a half-maximal response. A higher EC50 goes with lower potency in that assay. For orientation: IC50 means the concentration at which inhibition is half-maximal.

16 molecules from patent US20240109974A1 (SHANDONG SIMCERE BIOPHARMACEUTICAL, published 2024) can be followed below.

Sequences and labels used below:
T1: Human TNFR2-His (Sino 10417-H08H) (human, UniProt P20333 23-257)
T1 construct: Bought protein; also called recombinant human TNFR2 protein; not shown: His tag
T1 sequence (looked up): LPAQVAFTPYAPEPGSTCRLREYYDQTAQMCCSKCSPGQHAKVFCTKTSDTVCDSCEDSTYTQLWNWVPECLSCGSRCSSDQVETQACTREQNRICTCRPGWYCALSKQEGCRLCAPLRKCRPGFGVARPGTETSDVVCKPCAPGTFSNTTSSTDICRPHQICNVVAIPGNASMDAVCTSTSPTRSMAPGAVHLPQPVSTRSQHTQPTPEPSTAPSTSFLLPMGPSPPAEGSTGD

T2: human TNFR2 on the surface of CHO-TNFR2 cells (human, UniProt P20333 23-461)
T2 construct: whole, on cells
T2 sequence (looked up): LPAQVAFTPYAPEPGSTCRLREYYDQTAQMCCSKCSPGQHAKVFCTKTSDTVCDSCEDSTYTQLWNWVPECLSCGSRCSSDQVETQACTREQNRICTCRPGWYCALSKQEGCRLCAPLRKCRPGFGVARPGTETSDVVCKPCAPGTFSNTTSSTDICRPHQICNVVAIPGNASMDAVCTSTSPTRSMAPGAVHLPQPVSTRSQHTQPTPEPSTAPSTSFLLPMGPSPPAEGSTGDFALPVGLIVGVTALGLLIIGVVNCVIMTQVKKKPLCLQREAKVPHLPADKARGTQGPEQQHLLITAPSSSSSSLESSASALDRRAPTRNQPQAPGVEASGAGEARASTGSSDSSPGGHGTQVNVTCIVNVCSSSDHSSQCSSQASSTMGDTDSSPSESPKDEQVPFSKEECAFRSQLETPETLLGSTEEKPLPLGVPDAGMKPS

T3: human TNFR2 (Novoprotein, Cat #C830) (human, UniProt P20333 23-257, limits assumed)
T3 construct: construct not described; also called human TNFR2 protein
T3 sequence (looked up): T1 sequence (looked up)

B1: 001-Hu5 (antibody, V domains shown)
VH: EVQLVESGGGLVQPGGSLRLSCAASGFAFSTYDLSWVRQAPGKGLEWVAYINNGGISTYYSDTVKGRFTISRDNAKNTLYLQMNSLRAEDTAVYYCVRGPFYGSANYFDYWGQGTLVTVSS
VL: DIQMTQSPSSLSASVGDRVTITCRTSESIYSNLPWYQQKPGKSPKLLVYDATKLAEGVPSRFSGSGSGTDYTLTISSLQPEDFATYYCQHFWVTPWTFGQGTKVEIK
notes: Humanized form of #001; also called VH1 + VL4
B2: 001-Hu3 (antibody, V domains shown)
VH: B1 VH
VL: B1 VL with S43A, V48I
notes: Humanized form of #001; also called VH1 + VL3
B3: 001-Hu1 (antibody, V domains shown)
VH: B1 VH
VL: B1 VL with S43A, V48L
notes: Humanized form of #001; also called VH1 + VL1
B4: 001-Hu2 (antibody, V domains shown)
VH: B1 VH with T78S
VL: B1 VL with V48I, Y71F
notes: Humanized form of #001; also called VH2 + VL2
B5: 001-Hu4 (antibody, V domains shown)
VH: B1 VH with T78S
VL: B1 VL
notes: Humanized form of #001; also called VH2 + VL4
B6: 224-Hu1 (antibody, V domains shown)
VH: QVQLVQSGAEVKKPGASVKVSCKASGFNNKDIYMHWVRQAPGQGLEWIGRIDPATGNTKHDPKFQDRVTMTSDTSTNTVYMELSSLRSEDTAVYYCARSPYGDFGAMDYWGQGTLVTVSS
VL: DIQMTQSPSSLSASVGDRVTITCTASSSVSSNYLHWYQQKPGKAPKLWIYSTSNLPSGVPSRFSGSGSGTDFTLTISSLQPEDFATYYCHQYHRSPWTFGQGTKVEIK
notes: Humanized form of #224; also called VH8 + VL6
B7: 224-Hu7 (antibody, V domains shown)
VH: QVQLVQSGSELKKPGASVKVSCKASGFNNKDIYMHWVRQAPGQGLEWMGRIDPATGNTKHDPKFQDKAVLSSDTSVSTAYLQISSLKAEDTAVYYCARSPYGDFGAMDYWGQGTLVTVSS
VL: B6 VL with W48L
notes: Humanized form of #224; also called VH9 + VL10
B8: 224-Hu3 (antibody, V domains shown)
VH: B7 VH
VL: B6 VL with W48L, P81A, F84A
notes: Humanized form of #224; also called VH9 + VL8
B9: 224-Hu6 (antibody, V domains shown)
VH: B6 VH
VL: B6 VL with K43S, A44S
notes: Humanized form of #224; also called VH8 + VL7
B10: 224-Hu4 (antibody, V domains shown)
VH: B7 VH
VL: B6 VL
notes: Humanized form of #224; also called VH9 + VL6
B11: 224-Hu2 (antibody, V domains shown)
VH: B7 VH
VL: B6 VL with K43S, A44S
notes: Humanized form of #224; also called VH9 + VL7
B12: 219-Hu3 (antibody, V domains shown)
VH: QVQLVQSGAEVKKPGSSVKVSCKASGYSFTNYWMNWVRQAPGQGLEWMGMIHPSDTETRLNQNFKDRVTITADKSTSTAYMELSSLRSEDTAVYYCARGEGLGAARSVSMDYWGQGTLVTVSS
VL: DIQMTQSPSSLSASVGDRVTITCRASQDISNYLNWYQQKPDGTVKLLIYYTAILHSGVPSRFSGSGSGTDYSLTISSLQPEDFATYFCQQGNTLPWTFGQGTKVEIK
notes: also called VH5 + VL5
B13: 219-Hu1 (antibody, V domains shown)
VH: B12 VH with S16A, G44R, A72R, K74T, T76A
VL: B12 VL
notes: also called VH3 + VL5
B14: 219-Hu4 (antibody, V domains shown)
VH: B12 VH with R38K, M48I, R67K, V68A, I70L, A72V
VL: B12 VL
notes: also called VH6 + VL5
B15: 219-Hu5 (antibody, V domains shown)
VH: B12 VH with A72V
VL: B12 VL
notes: also called VH7 + VL5
B16: 219-Hu2 (antibody, V domains shown)
VH: B12 VH with R67K, V68A
VL: B12 VL
notes: also called VH4 + VL5

Numbering of substitutions follows the chain as printed.

One test deals with T1, Human TNFR2-His (Sino 10417-H08H). In words: ELISA, human TNFR2-His coated. As for the experimental part: The test humanized antibody against TNFR2 (as described in Example 1, the antibody was comprised of variable regions linked to IgG-Fc; the WT chimeric antibody also adopted the IgG-Fc structure) was subjected to 3.33-fold gradient dilution, loaded with 100 μl/well, and incubated with shaking at room temperature for 1.5 hours. The plate was washed, and then a working solution of murine anti-human IgG Fc-HRP (diluted at 1:10000) was added, loaded with 100 μl/well, and incubated with shaking at room temperature for 1.0 hour. The plate was washed again, and then the substrate TMB of HRP was added to develop colour. A stop solution was added to stop the reaction, and then a microplate reader (MD 13) was used to read the absorbance value. The binding curve of an antibody was drawn with antibody concentration as the abscissa and corresponding OD value as the ordinate, and fitted with four parameters (GraphPad Prism9) to calculate the EC50 value. The smaller the EC50 value, the stronger the binding ability of an antibody to human/cynomolgus monkey TNFR2. The binding effect of a humanized antibody was normalized to its corresponding human-murine chimeric antibody WT (see SEQ ID NOs: 38-43 for the sequence). The higher the percentage value, the better the binding effect of the humanized antibody. The results of binding of an anti-TNFR2 antibody to a human TNFR2 protein are shown in FIG. 1 and Table 4, and the results of binding of an anti-TNFR2 antibody to cynomolgus monkey TNFR2 are shown in FIG. 2 and Table 4.
Take B1: a half-maximal effect (EC50) was put at 0.0102 µg/mL.
On the same count and under the same terms, in the case of B2 it was 0.0101 µg/mL; in that of B3, 0.00986 µg/mL.
Same read-out and setting: under B4 stands 0.00956 µg/mL.
As to B5, a half-maximal response (EC50) required 0.00894 µg/mL.
Same read-out and setting: under B6 stands 0.0104 µg/mL; under B7, 0.0096 µg/mL.
On the same count and under the same terms, in the case of B8 it was 0.0122 µg/mL.
Still for that read-out and setting: under B9 stands 0.0111 µg/mL; under B10, 0.0107 µg/mL; under B11, 0.0108 µg/mL.
B12 yielded a half-maximal effective concentration (EC50) of 0.021 µg/mL.
The same measure, in the same setting: under B13 stands 0.0213 µg/mL; under B14, 0.0168 µg/mL; under B15, 0.0173 µg/mL.
The same measure, in the same setting: in the case of B16 it was 0.0185 µg/mL.

The next test deals with T2, human TNFR2 on the surface of CHO-TNFR2 …. In words: flow cytometry on CHO-TNFR2 cells; EC50 against 224-WT. As for the experimental part: The transfected full-length plasmid of human TNFR2 was purchased from Sino Biological (Cat #HG10417-UT, NCBI Ref Seq: NM_001066.2). The experiment was conducted at a cell density within 80%. The cell medium was discarded; the cells were rinsed with PBS, and digested with 1 ml trypsin for 2 minutes; the digestion was stopped with a Ham's F12 complete medium containing 10% FBS, and then a cell suspension was made. The cell suspension was counted, and then an appropriate amount of cell suspension was centrifuged at 350×g; the supernatant was discarded; a corresponding volume of blocking solution (10% FBS+PBS) at a density of 1×10⁷ cells/ml was added to resuspend the cells, and the mixture was incubated at 4° C. for 30 minutes. After the incubation, the mixture was centrifuged at 350×g to remove the supernatant, and the cells were resuspended in a staining buffer (2% FBS+PBS) to a density of 2×10⁶ cells/ml, and spread onto a 96-well plate, with 50 μl of cell suspension added to each well for later use. The antibody was diluted with PBS for 10-fold gradient dilution from the highest concentration of 20 μg/m (twice the concentration); the diluted antibody was added to the well containing 50 μl of cell suspension, and placed on a microplate shaker for shaking at 500 rpm for 1 minute, so that the antibody was fully mixed with the cells; the mixture was incubated at 4° C. for 1 h. After the incubation, the cells were washed twice with the staining buffer, with 100 μl per well, and centrifuged at 350-g for 5 minutes, and the supernatant was discarded. The PE goat anti-Human IgG Fc antibody (ebioscience, Cat #12-4998-82) was diluted 250-fold with the staining buffer, with a volume of 100 μl per well added to the washed cell wells; the mixture was mixed evenly, and stained at 4° C. for 30 minutes. After the staining, similarly, the cells were washed twice with the staining buffer; finally, the cells were resuspended in 200 μl of staining buffer; signals were detected by a flow cytometer (Thermo Attune NxT). The stronger the signal, the stronger the binding ability of an antibody to TNFR2. The binding curve of an antibody was drawn with antibody concentration as the abscissa and corresponding mean fluorescence intensity (MFI) fold as the ordinate, and fitted with four parameters (GraphPad Prism9) to calculate the EC50 value.
Background: A flow cytometer gives signals particle by particle.
As for B6, the “% Relative activity (WT antibody/test antibody)” value is 94.5%.
Same read-out and setting: in the case of B7 it was 140%.
Still for that read-out and setting: under B8 stands 116%.
Same read-out and setting: in the case of B9 it was 139%.
As for B10, the “% Relative activity (WT antibody/test antibody)” value was 131%.
On the same count and under the same terms, in the case of B11 it was 119%.

The next test concerns the target T3, human TNFR2 (Novoprotein, Cat #C830). The test can be described thus: competition ELISA, human TNFR2 coated, competitor human TNFα-Biotin. As for the experimental part: 1 μg/ml human TNFR2 (Novoprotein, Cat #C830) was pre-coated with 100 μl/well […] in an ELISA plate. All the test TNFR2 antibodies were subjected to 2.5-fold gradient dilution from the highest concentration of 30 μg/ml; the diluted antibodies were mixed with 15 ng/ml human TNFα-Biotin (Acro Biosystem, Cat #TNA-H82E3) in equal volume, respectively; the resulting mixture was added to the ELISA plate at 100 μl/well, and incubated with shaking at room temperature for 2.0 hours. The plate was washed, and then a Streptavidin-HRP working solution (diluted at 1:10000) was added at 100 μl/well, and the mixture was incubated with shaking at room temperature for 40 minutes. The plate was washed again, and then the substrate TMB of HRP was added to develop colour. A stop solution was added to stop the reaction, and then a microplate reader (MD 13) was used to read the absorbance value. The inhibitory curve of an antibody was drawn with antibody concentration as the abscissa and corresponding OD value as the ordinate, and fitted with four parameters (GraphPad Prism9) to calculate the IC50 value. The smaller the IC50 value, the stronger the ability of an antibody to inhibit the binding of human TNFα to human TNFR2. The blocking effect of a humanized antibody was normalized to its corresponding human-murine chimeric antibody WT. The higher the percentage value, the better the inhibitory effect of the humanized antibody.
Background: In an ELISA, binding on a coated surface is turned into a signal by an enzyme label.
Regarding B1, the 50% inhibitory concentration (IC50) worked out at 0.656 µg/mL.
On the same count and under the same terms, under B2 stands 0.597 µg/mL; under B3, 0.573 µg/mL.
On the same count and under the same terms, under B4 stands 0.78 µg/mL; under B5, 0.59 µg/mL; under B6, 0.441 µg/mL.
In turn, B7 showed an IC50 of 0.561 µg/mL.
Take B8: the half-maximal inhibitory concentration (IC50) amounted to 0.441 µg/mL.
Still for that read-out and setting: in the case of B9 it was 0.439 µg/mL; in that of B10, 0.458 µg/mL.
Regarding B11, the IC50 worked out at 0.44 µg/mL.
Molecule B12 gave an IC50 of 0.545 µg/mL.
The molecule B13 registered a concentration for half-maximal inhibition (IC50) of 0.49 µg/mL.
Same read-out and setting: in the case of B14 it was 0.606 µg/mL; in that of B15, 0.578 µg/mL; in that of B16, 0.472 µg/mL.
